Non-standard residues stand in square brackets, D forms with d. No end group written: not given here. *: point of attachment. curcumin = curcumin, a phytochemical attached to the lysine side chains; Biotin = O=C1N[C@H]2[C@H](CS[C@H]2CCCCC(=O)*)N1; Nle = CCCC[C@H](N)C(=O)O
Assays:
[1] = target: T1, sortilin expressed on cancer cells (SKOV3, ES-2 ovarian cancer cells) (UniProt Q99523 78-831, limits assumed)
T1 sequence (looked up): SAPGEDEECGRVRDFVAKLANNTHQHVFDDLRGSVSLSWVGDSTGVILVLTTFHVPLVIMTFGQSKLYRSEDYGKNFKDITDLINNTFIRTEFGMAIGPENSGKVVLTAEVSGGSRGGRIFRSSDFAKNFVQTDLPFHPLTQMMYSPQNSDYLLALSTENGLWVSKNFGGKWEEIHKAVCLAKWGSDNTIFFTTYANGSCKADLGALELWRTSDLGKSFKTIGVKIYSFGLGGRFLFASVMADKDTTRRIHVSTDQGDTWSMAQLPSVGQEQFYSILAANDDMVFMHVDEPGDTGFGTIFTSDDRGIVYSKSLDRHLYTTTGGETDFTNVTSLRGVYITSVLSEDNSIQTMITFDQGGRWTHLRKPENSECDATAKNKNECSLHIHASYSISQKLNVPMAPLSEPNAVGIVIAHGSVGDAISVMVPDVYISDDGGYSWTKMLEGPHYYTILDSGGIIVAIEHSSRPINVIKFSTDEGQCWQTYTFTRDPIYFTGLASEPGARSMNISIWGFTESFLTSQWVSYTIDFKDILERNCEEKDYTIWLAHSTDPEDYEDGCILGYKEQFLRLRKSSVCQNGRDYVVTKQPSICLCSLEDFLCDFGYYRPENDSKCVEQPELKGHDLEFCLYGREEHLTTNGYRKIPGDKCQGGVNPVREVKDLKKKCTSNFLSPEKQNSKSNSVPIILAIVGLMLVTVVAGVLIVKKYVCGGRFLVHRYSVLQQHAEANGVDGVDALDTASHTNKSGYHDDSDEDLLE

[2] = target: T1, sortilin expressed on cancer cells …; remark: listed apart in the source
[3] = target: T1, sortilin expressed on cancer cells …; remark: listed apart in the source
[4] = target: T1, sortilin expressed on cancer cells …; remark: listed apart in the source
soluble form of sortilin = target: T2, soluble form of sortilin (UniProt Q99523 78-755, limits assumed); test: SPR; biotinylated KBP-103 on a streptavidin chip, soluble sortilin injected
T2 construct: also called soluble sortilin; receptor sortilin
T2 sequence (looked up): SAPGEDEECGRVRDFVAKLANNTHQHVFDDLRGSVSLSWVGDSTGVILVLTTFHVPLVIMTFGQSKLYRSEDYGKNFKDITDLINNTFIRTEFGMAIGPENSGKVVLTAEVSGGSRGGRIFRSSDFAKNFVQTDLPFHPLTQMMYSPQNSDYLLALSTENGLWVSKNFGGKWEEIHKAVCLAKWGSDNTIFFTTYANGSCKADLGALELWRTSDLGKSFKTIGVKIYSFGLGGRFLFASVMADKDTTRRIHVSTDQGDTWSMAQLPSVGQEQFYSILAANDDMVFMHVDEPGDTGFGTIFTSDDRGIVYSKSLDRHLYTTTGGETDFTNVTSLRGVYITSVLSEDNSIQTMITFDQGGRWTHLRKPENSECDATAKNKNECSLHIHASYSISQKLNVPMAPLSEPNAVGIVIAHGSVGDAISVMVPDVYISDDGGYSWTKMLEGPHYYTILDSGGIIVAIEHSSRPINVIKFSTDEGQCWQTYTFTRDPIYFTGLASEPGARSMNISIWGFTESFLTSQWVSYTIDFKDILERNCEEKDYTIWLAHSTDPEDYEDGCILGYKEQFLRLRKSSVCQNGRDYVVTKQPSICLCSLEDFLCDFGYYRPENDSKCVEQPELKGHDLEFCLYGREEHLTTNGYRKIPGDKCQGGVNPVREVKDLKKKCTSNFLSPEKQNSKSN
Procedure: Biotinylated Katana peptide was immobilized on a streptavidin sensor chip. A. Soluble sortilin was then injected over the immobilized peptide. The surface plasmon resonance signal was then monitored over time.
Surface plasmon resonance (SPR) was first used to investigate whether these peptides could be recognized by sortilin. For this approach, biotin was added on the C-terminal end of the Katana-Biopharma peptide during peptide synthesis. The biotinylated-peptide (KBP-103) was then immobilized on a streptavidin sensor chip using recommended procedures from the manufacturer. Increasing concentrations of a soluble form of sortilin was then injected over the sensor chip. Interactions between immobilized KBP-103 and the receptor sortilin was then monitored in real time. A representative interaction curve is shown in FIG. 1, and from the sensorgram curves the affinity constant as well as Ka and Kd were determined and are indicated in Table 2. Affinity constants (KD, […]) were extracted from various injections using the BIA evaluation software.

[5] = target: T1, sortilin expressed on cancer cells …; test: cell-based or functional assay

## Progranulin (from UniProt P28799 18-593) (ligand)
[1]
  inhibition of KBC106 fluorescence intensity (RFU) in ES-2 cells by progranulin [continued) C]: 81.5%
[2]
  inhibition of KBB106 accumulation (% of control) in ovarian cancer cells by progranulin: 52%
[3]
  decrease of the late apoptosis induced by 2 uM KBA-201 in SKOV3 cells by 1.2 nM progranulin: 55%

## Neurotensin (from UniProt P30990 151-163) (peptide)
[1]
  inhibition of KBC106 fluorescence intensity (RFU) in ES-2 cells by neurotensin (bar NT) [continued) C]: 52%
[4]
  decrease of the late apoptosis induced by 2 uM KBA-105 in SKOV3/Luc cells by 10 uM NT: 47.5%
[3]
  decrease of the late apoptosis induced by 2 uM KBA-201 in SKOV3 cells by 10 uM NT: 45.5%

B1: KBP-103: IKLSGGVQAKAGVINMFKSESYK(Biotin) (peptide)
peptide: IKLSGGVQAKAGVINMFKSESYK(Biotin)
notes: Immobilised on a streptavidin sensor chip in the SPR assay; also called biotinylated-peptide; Katana peptide
Soluble form of sortilin
  Kd: 25.5 nM
  koff: 0.0174 s⁻¹
  kon: 683000 M⁻¹ s⁻¹

B2: KBC-106 (2:1): Acetyl-GVRAK(curcumin)AGVRN(Nle)FK(curcumin)SESY (peptide)
peptide: Ac-GVRAK(curcumin)AGVRN[Nle]FK(curcumin)SESY
[5]
  relative fluorescence (RFU) of ES-2 cells after KBC106 against unconjugated curcumin (live imaging): 2.3 fold
